Eleven sequences from the DeepSol protein solubility set can be followed below.

This data set is described as follows: soluble on expression in E. coli; label from the status in PepcDB or PDB records.
In the case of “MRFAVLGSGSRGNGTLVASNDTYVLVDCGFSLRETERRLARLGVAASQLSAILVTHEHADHVHGVGLLSRRYNVPVYLSSGTLRGMRKPVEVAGLLAGGESLQIGALDIDVVSVAHDALEPTQFVFSDGSRRFGLLTDLGSYCSNVLQRYQGLDALMIEANHCRDMLARGQYPVFLKQRVGCETGHLNNHQAASLVSELGWQDLQHLVLAHLSSKNNLPHLARQCFVDTLGCDPDWLQLADQDSGLDWRHIALEHHHHHH”, the “soluble on expression in E. coli” value was “not soluble”.

As for “MKKRHLLSLLALGISTACYGETYPAPIGPSQSDFGGVGLLQTPTARMAREGELSLNYRDNDQYRYYSASVQLFPWLETTLRYTDVRTRQYSSVEAFSGDQTYKDKAFDLKLRLWEESYWLPQVAVGARDIGGTGLFDAEYLVASKAWGPFDFTLGLGWGYLGTSGNVKNPLCSASDKYCYRDNSYKQAGSIDGSQMFHGPASLFGGVEYQTPWQPLRLKLEYEGNNYQQDFAGKLEQKSKFNVGAIYRVTDWADVNLSYERGNTFMFGVTLRTNFNDLRPSYNDNARPQYQPQPQDAILQHSVVANQLTLLKYNAGLADPQIQAKGDTLYVTGEQVKYRDSREGIIRANRIVMNDLPDGIKTIRITENRLNMPQVTTETDVASLKNHLAGEPLGHETTLAQKRVEPVVPQSTEQGWYIDKSRFDFHIDPVLNQSVGGPENFYMYQLGVMGTADLWLTDHLLTTGSLFANLANNYDKFNYTNPPQDSHLPRVRTHVREYVQNDVYVNNLQANYFQHLGNGFYGQVYGGYLETMFGGAGAEVLYRPLDSNWAFGLDANYVKQRDWRSAKDMMKFTDYSVKTGHLTAYWTPSFAQDVLVKASVGQYLAGDKGGTLEIAKRFDSGVVVGGYATITNVSKEEYGEGDFTKGVYVSVPLDLFSSGPTRSRAAIGWTPLTRDGGQQLGRKFQLYDMTSDRSVNFRLEHHHHHH”, the “soluble on expression in E. coli” value is recorded as “not soluble”.

In the case of “MGSDKIHHHHHHMKKLNLQCDLFNNNNLNFSDKGPLQDVFIDKKIIKEWQAKIITHQSPIFKSGHIDVNQYSLFESSSDELNASFNPIELTPLPLSFWRWPKAMHEGPAVYFVMDEIIDSGENIILYIGETISAEKRWKGEHDCKDYISSYSDSLHKANVKAKLSIRFWLDVPTKTKERRKLEQKLIQAWLPPFNKETREIWATPFTSQIN”, the “soluble on expression in E. coli” value is “not soluble”.

On to “MGPIKTIKKKKRAEKKVDRNVLLAATAAATSASAAAALNNNDDDDDSSSQSLDWWDGFSRRIYGGSTDPKTFESVFKISRKTFDYICSLVKADFTAKPANFSDSNGNPLSLNDRVAVALRRLGSGESLSVIGETFGMNQSTVSQITWRFVESMEERAIHHLSWPSKLDEIKSKFEKISGLPNCCGAIDITHIVMNLPAVEPSNKVWLDGEKNFSMTLQAVVDPDMRFLDVIAGWPGSLNDDVVLKNSGFYKLVEKGKRLNGEKLPLSERTELREYIVGDSGFPLLPWLLTPYQGKPTSLPQTEFNKRHSEATKAAQMALSKLKDRWRIINGVMWMPDRNRLPRIIFVCCLLHNIIIDMEDQTLDDQPLSQQHDMNYRQRSCKLADEASSVLRDELSDQLCGKNSSA”, for which the “soluble on expression in E. coli” value is given as “soluble”.

Regarding “MTEEMNQIDVQVPEVGDVVKGIVTKVEDKHVDVEIINVKQSGIIPISELSSLHVEKASDVVKVDDELDLKVTKVEDDALILSKRAVDADRAWEDLEKKFETKEVFEAEVKDVVKGGLVVDIGVRGFIPASLVEAHFVEDFTDYKGKTLSLLVVELDRDKNRVILSHRAVVESEQANKKQELLQSLEVGSVLDGKVQRLTDFGAFVDIGGIDGLVHISQLSHSHVEKPSDVVEEGQEVKVKVLSVDRDNERISLSIKDTLPGPWNQIGEKVKPGDVLEGTVQRLVSFGAFVEILPGVEGLVHISQISNKHIGTPHEVLEEGQTVKVKVLDVNENEERISLSMRELEETPKADQEDYRQYQAKEETSTGFQLGDLIGDKLNKLKLEHHHHHH”, the “soluble on expression in E. coli” value is on record as “soluble”.

Regarding “QEGDAAKGEKEFNKCKACHMVQAPDGTDIVKGGKTGPNLYGVVGRKIASVEGFKYGDGILEVAEKNPDMVWSEADLIEYVTDPKPWLVEKTGDSAAKTKKTFKLGKNQADVVAFLAQHSPDAGAEAAPAEGAAN”, the “soluble on expression in E. coli” value is “soluble”.

As to “MGSDKIHHHHHHMVKNNNIAVKVEHVSKSFKLPTESSQSLRTTLVNLFKGIKGYVEYNVLQDISFEVEKGDFFGIVGRNGSGKSTLLKILSQIYVPERGTVAVDGKLVSFIELGVGFNPELTGKENVYLNGAMLGFTAEEIDAMYDDIVEFAELSEFMNQKLKNYSSGMQVRLAFSVAIKAQGDILILDEVLAVGDEAFQRKCNDYFLERKKSGKTTILVTHDMGAVKKYCNKALLIEKGYVKALGEPDDVANQYSFDNVLASISEVTENEEPLHQSDIVKDLQINLVSKNQIEPDESIEIEFRYTVLEDIETHVAFTFLDLERHFDVYNDNSMDLKTFGKGEKFFRVKCKLPSINQAKLKMAVSVRNSNKQPLLFAKTSDTPAIFISRKFSTDNIAEEDAATGFIQRNSQWELLD”, the “soluble on expression in E. coli” value was “not soluble”.

With “MGATGSSQLEKEISTTESVNNANEHYYGLVNALFFCRPFREKVLNYKQTLKKSGASKDNLVTCLADLFHSIASQKRRVGTIAPKRFITKLKKENELFDNYMQQDAHEFFNYLINTISETLIQEKIAEREKASRHGTLKKGNVTVNLAPATAGLPRSDEKGTSERNGGITVEGNEFLNKSDTTTWIHEIFQGILTNETRCLSCETVSSKDEDFLDLSIDVEQNTSISHCLRVFSETETLCGDQKYFCETCSSKQEAQKRMRIKKPPQLLALHLKRFKFVEPLNRHTKLSYRVVFPLELRLFNVSDDAEYGDRMYDLVATVVHCGATPNRGHYITLVKSNSFWLVFDDDIVEKLEVSSMEEFSGMSTDANIQMPPGNQSAPQKEFRICLYSVLSGKRLRC”, the “soluble on expression in E. coli” value is “not soluble”.

For the sequence “MAALMTPGTGAPPAPGDFSGEGSQGLPDPSPEPKQLPELIRMKRDGGRLSEADIRGFVAAVVNGSAQGAQIGAMLMAIRLRGMDLEETSVLTQALAQSGQQLEWPEAWRQQLVDKHSTGGVGDKVSLVLAPALAACGCKVPMISGRGLGHTGGTLDKLESIPGFNVIQSPEQMQVLLDQAGCCIVGQSEQLVPADGILYAARDVTATVDSLPLITASILSKKLVEGLSALVVDVKFGAGAVFPNQEQARELAKTLVGVGASLGLRVAAALTAMDKPLGRCVGHALEVEEALLCMDGAGPPDLRDLVTTLGGALLWLSGHAGTQAQGAARVAAALDDGSALGRFERMLAAQGVDPGLARALCSGSPAERRQLLPRAREQEELLAPADGTVELVRALPLALVLHELGAGRSRAGEPLRLGVGAELLVDVGQRLRRGTPWLRVHRDGPALSGPQSRALQEALVLSDRAPFAAPLPFAELVLPPQQ”, the “soluble on expression in E. coli” value was “soluble”.

Turning to “ATSDSNMLLNYVPVYVMLPLGVVNVDNVFEDPDGLKEQLLQLRAAGVDGVMVDVWWGIIELKGPKQYDWRAYRSLLQLVQECGLTLQAIMSFHQCGGNVGDIVNIPIPQWVLDIGESNHDIFYTNRSGTRNKEYLTVGVDNEPIFHGRTAIEIYSDYMKSFRENMSDFLESGLIIDIEVGLGPAGELRYPSYPQSQGWEFPGIGEFQCYDKYLKADFKAAVARAGHPEWELPDDAGKYNDVPESTGFFKSNGTYVTEKGKFFLTWYSNKLLNHGDQILDEANKAFLGCKVKLAIKVSGIHWWYKVENHAAELTAGYYNLNDRDGYRPIARMLSRHHAILNFSCLEMRDSEQPSDAKSGPQELVQQVLSGGWREDIRVAGENALPRYDATAYNQIILNARPQGVNNNGPPKLSMFGVTYLRLSDDLLQKSNFNIFKKFVLKMHADQDYCANPQKYNHAITPLKPSAPKIPIEVLLEATKPTLPFPWLPETDMKVDG”, the “soluble on expression in E. coli” value is reported as “soluble”.

In the case of “MDEFVKGLMKNGYLITPSAYYLLVGHFNEGKFSLIELIKFAKSRETFIIDDEIANEFLKSIGAEVELPQEIKEGYISTGEGSQKVPDHEELEKITNESSVESSISTGETPKTEELQPTLDILEEEIGDIEGGESSISTGDEVPEVENNNGGTVVVFDKYGYPFTYVPEEIEEELEEYPKYEDVTIEINPNLEVVPIEKDYEIKFDVRRVKLKPPKVKSGSGKEGEIIVEAYASLFRSRLRKLRRILRENPEVSNVIDIKKLKYVKGDEEVTIIGLVNSKKETSKGLIFEVEDQTDRVKVFLPKDSEDYREALKVLPDAVVAFKGVYSKRGIFFANRFYLPDVPLYRKQKPPLEEKVYAVLTSDIHVGSKEFCEKAFIKFLEWLNGYVESKEEEEIVSRIRYLIIAGDVVDGIGIYPGQYSDLIIPDIFDQYEALANLLSNVPKHITIFIGPGNHDAARPAIPQPEFYEEYAKPLYKLKNTVIISNPAVIRLHGRDFLIAHGRGIEDVVSFVPGLTHHKPGLPMVELLKMRHLAPTFGGKVPIAPDPEDLLVIEEVPDLVQMGHVHVYDTAVYRGVQLVNSATWQAQTEFQKMVNIVPTPGLVPIVDVESARVIKVLDFSRWC”, the “soluble on expression in E. coli” value is listed as “soluble”.
